Data on two molecules can be found in article PMC5036187 (Scientific Reports, 2016).

The target in this assay is T1, Glypican-3 (GPC3) on G1 cells (Homo sapiens, UniProt P51654).
T1 construct: also called GPC3+ cells (G1)
Put plainly: flow cytometry on cells. As to conditions: one partner purified. (In general: Flow cytometry measures light scatter and fluorescence of single cells or particles in a stream.)

Changes are numbered by the printed parent chain.

T1 sequence (P51654 25-580): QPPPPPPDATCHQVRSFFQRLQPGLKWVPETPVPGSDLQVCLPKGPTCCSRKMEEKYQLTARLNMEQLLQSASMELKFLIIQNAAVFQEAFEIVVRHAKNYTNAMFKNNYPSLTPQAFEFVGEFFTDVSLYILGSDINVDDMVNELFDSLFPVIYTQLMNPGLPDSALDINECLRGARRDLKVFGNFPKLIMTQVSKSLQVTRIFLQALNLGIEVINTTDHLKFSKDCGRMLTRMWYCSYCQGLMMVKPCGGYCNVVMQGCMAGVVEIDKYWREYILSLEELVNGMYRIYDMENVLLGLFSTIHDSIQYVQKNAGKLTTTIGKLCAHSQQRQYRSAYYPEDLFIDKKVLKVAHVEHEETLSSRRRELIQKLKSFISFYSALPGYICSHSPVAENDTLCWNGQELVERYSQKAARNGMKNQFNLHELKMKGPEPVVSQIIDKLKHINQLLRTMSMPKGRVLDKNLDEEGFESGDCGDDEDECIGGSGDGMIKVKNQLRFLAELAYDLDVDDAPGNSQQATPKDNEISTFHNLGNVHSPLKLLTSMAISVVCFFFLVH

B1: humanized YP7 antibody, IgG format (human IgG1 kappa) (antibody, V domains shown)
VH: EVQLVESGGGLVQPGGSLRLSCAASGFTFNKNAMNWVRQAPGKGLEWVGRIRNKTNNYATYYADSVKARFTISRDDSKNSLYLQMNSLKTEDTAVYYCVAGNSFAYWGQGTLVTVS
VL: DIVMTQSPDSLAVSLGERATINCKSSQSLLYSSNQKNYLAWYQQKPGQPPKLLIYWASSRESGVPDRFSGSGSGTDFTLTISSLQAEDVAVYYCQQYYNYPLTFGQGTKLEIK
notes: also called hYP7; hYP7 IgG
By EC50 is commonly meant the concentration giving half of the maximal effect. In the case of B1, the EC50 was found to be 700 pM.

B2: humanized YP9.1b antibody, IgG format (human IgG1 kappa) (antibody, V domains shown)
VH: B1 VH with T28N, K31T, I51V, A68D
VL: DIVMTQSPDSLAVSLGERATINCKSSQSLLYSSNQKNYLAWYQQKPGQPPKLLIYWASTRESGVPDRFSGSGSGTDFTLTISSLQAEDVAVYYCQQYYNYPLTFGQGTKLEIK
notes: also called hYP9.1b; hYP9.1b IgG
Regarding B2, the half-maximal effective concentration (EC50) is 400 pM.
